Laboratory results from the supplement of paper PMC10567573.

B1: FBF1 (parent)
chain: YQRPQDSEDMWGDEDFTFGAYQPT

Variants of: B1
Assay: protein stability index of a GFP-peptide fusion (GPS, HEK-293T) (PSI 1-6); higher = more stable
Conditions: c terminus: a fixed tail appended
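Also: lentivirally expressed fusions sorted by FACS into six bins by GFP to DsRed ratio, PSI derived from sequencing read proportions per bin multiplied by bin number.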

Protein stability index: each site, then its substitutions
E8: D 2.47; F 2.13; S 2.32; N 2; G 1.98; P 1.65; C 1.99; Y 2.31; I 1.95; R 1.58; Q 1.81; L 2.1; T 2.29; A 1.9; V 1.7; H 2.01; K 1.78; M 2.42; W 1.58
R3: N 3.71; K 3.64; T 2.62; P 3.87; F 3.12; A 3.44; I 2.87; Y 3.09; S 3.11; D 4.36; W 2.82; E 4.79; C 3.12; H 3.49; G 3.4; V 3.5; L 3.46; M 3.2; Q 4.01
D6: W 1.64; T 2.53; Q 2.26; C 2.06; K 1.94; R 2.04; I 1.98; G 1.77; L 2.17; S 2.24; Y 2.06; F 1.68; M 2.32; N 2.25; V 2.12; P 2.3; A 2.05; H 1.84; E 2.59
D9: S 2.11; I 2.13; K 2.01; G 2.47; R 2.34; A 2.17; C 1.55; P 2.02; M 1.55; N 2.48; F 1.92; L 1.44; Q 2.23; H 2.03; E 3.21
Q2: H 2.21; N 3.14; E 4.26; R 3.83; G 3.76; F 3.25; P 3.05; M 3.56; I 2.08; K 3.81; D 4.81; C 2.7; A 2.79; S 3.53; V 1.78; T 3.54; W 2.38; Y 3.65; L 3.45
Y1: C 3.54; K 4.24; P 4.71; N 4.62; T 4.66; W 3.93; E 4.84; A 4.84; S 4.52; I 3.95; Q 4.23; M 4.6; F 2.58; G 4.79; L 3.87; H 4.76; R 3.94; V 3.92; D 4.87
S7: Q 2.9; D 3.68; F 2.41; L 2.87; G 2.47; Y 1.74; A 2.68; M 2.37; T 2.35; K 3.01; N 3.2; H 2.58; E 3.29; C 2.34; R 2.71; V 2.82; P 3.13; I 2.99; W 1.73
P4: I 2.68; C 2.7; R 2.26; V 2.49; M 2.74; T 2.57; G 2.69; D 3.39; Q 2.54; L 2.74; W 2.09; S 2.54; Y 3.04; K 2.29; H 2.97; F 2.54; A 2.45; E 3.56; N 2.26
Q5: L 2.09; K 2.01; A 2.49; R 2.16; N 3.03; D 3.79; M 2.44; I 2.26; T 3.18; W 2.03; S 2.98; Y 2.57; G 2.99; P 2.52; H 2.44; C 2.26; E 3.76; F 2.64; V 2.56
